Km, kcat and kcat/Km data for 1 protein are collected here from paper PMC3313952, “Multicopper Oxidase-3 Is a Laccase Associated with the Peritrophic Matrix of Anopheles gambiae” (PLoS ONE, 2012).

Holding throughout (assay): spectrophotometric product formation, Michaelis-Menten fit
Holding throughout (type): biochemical, Anopheles gambiae

Substrate in series [1]: Oc1ccc(O)cc1
To be noted: pH 6.5, 0.1 M Mes; pH 6.5. The text has this:
(§1) spectrophotometric product formation, Michaelis-Menten fit on AgMCO3

Substrate in series [2]: CC(=O)NCCc1ccc(O)c(O)c1
Conditions: pH 7.5, 0.1 M sodium phosphate; pH 7.5.
Source text: as §1

Substrate in series [3]: N[C@@H](Cc1ccc(O)c(O)c1)C(=O)O
Conditions: pH 7.5, 0.1 M sodium phosphate; pH 7.5.
Source text: as §1

Substrate in series [4]: NCCc1ccc(O)c(O)c1
To be noted: pH 7.5, 0.1 M sodium phosphate; pH 7.5.
Source text: as §1

Substrate in series [5]: NCCC(=O)NCCc1ccc(O)c(O)c1
Conditions: pH 7.0, 0.1 M sodium phosphate; pH 7.0.
Source text: as §1

Substrate in series [6]: CCn1c(=NN=c2sc3cc(S(=O)(=O)O)ccc3n2CC)sc2cc(S(=O)(=O)O)ccc21
To be noted: pH 6.0, 0.1 M Mes; pH 6.0.
Source text: as §1

Substrate in series [7]: Oc1ccccc1O
Conditions: pH 7.0, 0.1 M sodium phosphate; pH 7.0.
Source text: as §1

B1: AgMCO3 (Anopheles gambiae) (protein)
chain: QSWLNTLLEQSNGTLDVSTFPGEQCLRECDNTQPRICHFSWTMEHYHVMGPACRDCAKGNHTDCYHPACITADGVERGVMSLNRKIPGPTISVCRHDLIVVDITNAMAGTSAAIHWHGLHQRATPYMDGVPFITQCPIGFGNTFRYAFLATEPGTQFYHSHSGHHKVNGHYGALIVREPKRVDPNGDLYHYDTPAHVILGSDWMHIDGEMFMPGLPSAGGIMPINLLINGKGTYHDPKKNETTQTPLEVYTVRRGARFRFRFINAASHVCPLQLQIEDHMMEVIASDSFHLQPRKVDTLVSTSGERYDFVLEANGVKDTYWVRLRSLGPCADLQLEQFAVLRYTTGPFINDAFPTGAPPTYEEPFRNVATANHPNATCGRPEFGDYCITDFQAYDTDEDVINGVPDHQLTFGFYNYPVSFESMFESNRYEHYMNIYGSVMMQGAINNISLAYPPFSLLTQPEKIRDDTFCDEDNRPDSCSDRQLCTCTHRVKINLGDIVELYILDLTPSVNDLNHPFHLHGYQMFVMEMSQDRRVPITLEIAQNIARQRLLSRNTVALPPRKDTVSIPSRGYARVRFRADNPGFWLMHCHYEWHTAVGMALVLQVGETSEMVKAPADFPKCDSYTPAVGHLLQGSL
notes: no tag mentioned; baculovirus / Sf9 host; cDNA identical to EF592176.2 except Leu instead of Pro at residue 15 in signal peptide (probable GenBank error)
As a reminder, the Km is the concentration of substrate that gives half-maximal velocity. By kcat is commonly meant the maximal rate divided by the concentration of active sites. Broadly, the kcat/Km is the second-order rate constant that governs catalysis at low substrate concentration. In the case of B1, the Km came out at 5200 µM in series [1]; 1000 µM in series [2]; 1400 µM in series [3]; 1600 µM in series [4]; 2200 µM in series [5]; 8500 µM in series [6]. In series [7], the Michaelis-Menten constant (Km) worked out at 2100 µM. Further, the kcat in series [1] worked out at 26.2 s⁻¹; in series [2], 2.58 s⁻¹; in series [3], 1.55 s⁻¹; in series [4], 4.57 s⁻¹; in series [5] it was 11.8 s⁻¹; in series [6], 2.6 s⁻¹. Also, in series [7], the kcat turned out to be 5.1 s⁻¹. In addition, the catalytic efficiency (kcat/Km) came to 5030 M⁻¹ s⁻¹ in series [1]; 2580 M⁻¹ s⁻¹ in series [2]; 1100 M⁻¹ s⁻¹ in series [3]; 2850 M⁻¹ s⁻¹ in series [4]; 5380 M⁻¹ s⁻¹ in series [5]; 300 M⁻¹ s⁻¹ in series [6]. In addition, in series [7], the catalytic efficiency (kcat/Km) stood at 2430 M⁻¹ s⁻¹.
